# B1: TCR of clonotype 2 (TCR beta CDR3 CASSHNSGREGNEQFF, SEQ ID NO:2), HPV 16 E6 91-115 specific T cell clonotype of subject 6 (TCR, V domains shown)
# V domain 1: GENVEQHPSTLSVQEGDSAVIKCTYSDSASNYFPWYKQELGKRPQLIIDIRSNVGEKKDQRIAVTLNKTAKHFSLHITETQPEDSAVYFCAPRVTGGGNKLTFGTGTQLKVEL
# V domain 2: GAGVSQSPRYKVAKRGQDVALRCDPISGHVSLFWYQQALGQGPEFLTYFQNEAQLDKSGLPSDRFFAERPEGSVSTLKIQRTQQEDSAVYLCASSHNSGREGNEQFFGPGTRLTVLE
# B2: TCR of clonotype 4 (TCR beta CDR3 CASSWEAGQETQYF, SEQ ID NO:4), HPV 16 E6 91-115 specific T cell clonotype of subject 6 (TCR, V domains shown)
# V domain 1: GENVEQHPSTLSVQEGDSAVIKCTYSDSASNYFPWYKQELGKGPQLIIDIRSNVGEKKDQRIAVTLNKTAKHFSLHITETQPEDSAVYFCAASAPGRTDKLIFGTGTRLQVFP
# V domain 2: KAGVTQTPRYLIKTRGQQVTLSCSPISGHRSVSWYQQTPGQGLQFLFEYFSETQRNKGNFPGRFSGRQFSNSRSEMNVSTLELGDSALYLCASSWEAGQETQYFGPGTRLLVLE
# B3: TCR of clonotype 3 (TCR beta CDR3 CASSFPGENEQFF, SEQ ID NO:3), HPV 16 E6 91-115 specific T cell clonotype of subject 6 (TCR, V domains shown)
# V domain 1: GDSVTQMEGPVTLSEEAFLTINCTYTATGYPSLFWYVQYPGEGLQLLLKATKADDKGSNKGFEATYRKETTSFHLEKGSVQVSDSAVYFCALTLSGSARQLTFGSGTQLTVLP
# V domain 2: DAGVIQSPRHEVTEMGQEVTLRCKPISGHNSLFWYRQTMMRGLELLIYFNNNVPIDDSGMPEDRFSAKMPNASFSTLKIQPSEPRDSAVYFCASSFPGENEQFFGPGTRLTVLE
# B4: TCR of clonotype 1 (TCR beta CDR3 CASSPTSGGLTWDEQYF, SEQ ID NO:1), HPV 16 E6 91-115 specific T cell clonotype of subject 6 (TCR, V domains shown)
# V domain 1: AQSVAQPEDQVNVAEGNPLTVKCTYSVSGNPYLFWYVQYPNRGLQFLLKYITGDNLVKGSYGFEAEFNKSQTSFHLKKPSALVSDSALYFCAVRAPSGSARQLTFGSGTQLTVLP
# V domain 2: EAGVAQSPRYKIIEKRQSVAFWCNPISGHATLYWYQQILGQGPKLLIQFQNNGVVDDSQLPKDRFSAERLKGVDSTLKIQPAKLEDSAVYLCASSPTSGGLTWDEQYFGPGTRLTVTE
# Target: T1, HPV 16 E6 91-115 region, given as three overlapping 15-mer peptides (91-105 YGTTLEQQYNKPLCD, SEQ ID NO:21); … (human papillomavirus type 16)
# T1 peptide: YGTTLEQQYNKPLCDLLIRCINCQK
# Assay: cell-based or functional assay
binder,measurement,value
B1,Frequency (%) of the clonotype among IFN-gamma secreting cells sorted after peptide stimulation,17%
B2,Frequency (%) of the clonotype among IFN-gamma secreting cells sorted after peptide stimulation,8.6%
B3,Frequency (%) of the clonotype among IFN-gamma secreting cells sorted after peptide stimulation,9.8%
B4,Frequency (%) of the clonotype among IFN-gamma secreting cells sorted after peptide stimulation,33.3%
